According to paper PMC10582448:

Molecular target: nucleosomes reconstituted in vitro from X. laevis core histones on biotinylated pKYB1 DNA (Xenopus laevis)
Experiment: optical tweezers with confocal fluorescence microscopy; nucleosomes on pKYB1 DNA tethered between streptavidin beads, in 1–2 nM fluorescently labelled chaperone; force-extension curves 1–32 pN at 20 nm/s with kymographs at 4 Hz; binding events after unwrapping / at high force (>10 pN); 25 mM HEPES, 50 mM KCl, 0.1 mM EDTA, pH 7.5

nucleophosmin 1, labelled with Alexa Fluor 532, sequence (P06748 whole entry): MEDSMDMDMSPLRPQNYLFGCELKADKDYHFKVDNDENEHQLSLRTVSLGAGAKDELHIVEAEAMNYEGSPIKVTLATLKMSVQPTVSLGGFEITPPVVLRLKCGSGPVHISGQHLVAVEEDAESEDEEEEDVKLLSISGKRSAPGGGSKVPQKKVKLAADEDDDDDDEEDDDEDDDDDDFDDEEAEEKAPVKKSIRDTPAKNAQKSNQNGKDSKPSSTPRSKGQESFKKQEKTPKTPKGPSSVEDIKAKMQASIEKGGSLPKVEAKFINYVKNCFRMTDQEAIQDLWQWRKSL

percent of the chaperone binding events found after complete unwrapping [%]	Substance
> 90	SET/template‐activating factor‐Iβ Q69C, labelled with Alexa Fluor 532 (from UniProt Q01105-2 1-277) (natural protein)
> 90	nucleophosmin 1, labelled with Alexa Fluor 532 (from UniProt P06748 1-294) (natural protein)
